# Assay results from patent US20150148405A1, “Expression Construct for a Lin28-Resistant Let-7 Precursor MicroRNA” (THE JOHNS HOPKINS UNIVERSITY, priority 2012, published 2015).
# What was measured:
# [1] = system: mature miRNA; experiment: miRNA profiling arrays (Taqman Rodent MicroRNA Array A); assay type: cell-based, mouse; details: BDNF 30 min, plus Actinomycin-D
# Procedure: Murine hippocampal cultures were preincubated for 10-20 minutes with […] Actinomycin D and either mock- or BDNF- (100 ng/mL) stimulated for 30 minutes before harvesting.
# For miRNA arrays, […] of total RNA for each sample was reverse-transcribed with stem-looped Megaplex RT Primers (Applied Biosystems) in a final volume of 7.5 μL according to manufacturer's instructions: preincubation at 4° C. for 5 min; 16° C. for 2 min, 42° C. for 1 min, 50° C. for 1 sec, 40 cycles; 85° C. for 5 min. The entire cDNA RT product (7.5 μk) was subjected to RT-qPCR on an Applied Biosystems 7900HT Fast Real-Time PCR system using Taqman Rodent MicroRNA Array A. Data were compiled in SDS RQ Manager 1.2.1 and analyzed in Data Assist 2.0 (Applied Biosystems); RQ was calculated as 2^−LCtBDNF/2^LCtmock where LCt=(cycle threshold for miRNA of interest)−(cycle threshold for reference control) (Schmittgen and Livak, 2008). Thresholds and cycle threshold (Ct) values were determined using default settings and the maximum allowable Ct value was set at 35.0 inclusive. Data were normalized by arithmetic mean using MammU6 (4395470) and snoRNA202 (4380914) reference RNAs as controls. miRNA array data are reposited with the NCBI Gene Expression Omnibus (GEO). […]
# [2] = system: hippocampal pyramidal neurons; experiment: Live cell imaging of P-body numbers (GFP-Dcp1a); assay type: cell-based, mouse; details: BDNF-stimulated vs mock, GFP-Dcp1a live imaging, in presence of Actinomycin-D
# Procedure: Dissociated hippocampal cultures were prepared from postnatal day 0 (P0) mice as previously described (Meffert et al., 2003). Knockdown was by lentiviral-mediated delivery of shRNA to cultures at multiplicity of infection of 5-10, 48 hr before imaging or 4-5 days for GW182. Cultures were preincubated 10-20 min and mock- or BDNF-stimulated (100 ng/mL BDNF) in the presence of Actinomycin-D (0.5 μg/mL), unless indicated otherwise.
# Confocal images of hippocampal pyramidal neurons were acquired on either a Yokogawa spinning disk (Zeiss) at 37° C. (live cells), or a LSM5 Pascal system (fixed cells). Laser power and exposure time were adjusted to minimize photobleaching and avoid saturation. […]
# Dissociated hippocampal cultures were prepared from postnatal day 0 (P0) mice as previously described (Meffert et al., 2003) and were maintained in Neurobasal A medium (Gibco, 10888) with B27 Supplement (Gibco 17504-44). […] For live cell imaging, confocal images of hippocampal pyramidal neurons (excitatory, determined by morphology) in 0.24-0.3 μm Z sections were acquired using a 40×, 1.3 NA, EC Plan Neofluoar (whole cells) or a 100×, 1.4 NA Plan Apochromat oil immersion objective (dendrites) on a Yokogawa spinning disk system (Cell Observer, Carl Zeiss) at 37° C. in Tyrodes buffer (in mM: 119 NaCl, 5 KCl, 2 CaCl2, 0.2 MgCl2, Glucose, 25 Hepes, 0.01 Glycine, pH 7.4). […]
molecule,measurement,setting,value
"BDNF: brain-derived neurotrophic factor, a neurotrophin used to stimulate hippocampal neurons (protein, UniProt P23560 19-247, looked up) Neurotrophic factor BDNF …: APMKEANIRGQGGLAYPGVRTHGTLESVNGPKAGSRGLTSLADTFEHVIEELLDEDQKVRPNEENNKDADLYTSRVMLSSQVPLEPPLLFLLEEYKNYLDAANMSMRVRRHSDPARRGELSVCDSISEWVTAADKKTAVDMSGGTVTVLEKVPVSKGQLKQYFYETKCNPMGYTKEGCRGIDKRHWNSQCRTTQSYVRALTMDSKKRIGWRFIRIDTSCVCTLTIKRGR",detectable miRNAs with significantly altered levels decreased to <50%,[1],10.6%
same,detectable miRNAs with significantly altered levels increased more than 2-fold,[1],89.4%
same,number of dendritic and somatic P-bodies,[2],rapid and robust increase in the number of both dendritic and somatic P-bodies
